Measurements taken from paper PMC6379669 (Nucleic Acids Research, 2018).

Target: full-length human RBBP4 (residues 1–425), recombinant (human, UniProt Q09028 1-425)
Assay: ITC

Sequence of full-length human RBBP4 (residues 1–425), recombinant (Q09028 whole entry, the tested form may be a part): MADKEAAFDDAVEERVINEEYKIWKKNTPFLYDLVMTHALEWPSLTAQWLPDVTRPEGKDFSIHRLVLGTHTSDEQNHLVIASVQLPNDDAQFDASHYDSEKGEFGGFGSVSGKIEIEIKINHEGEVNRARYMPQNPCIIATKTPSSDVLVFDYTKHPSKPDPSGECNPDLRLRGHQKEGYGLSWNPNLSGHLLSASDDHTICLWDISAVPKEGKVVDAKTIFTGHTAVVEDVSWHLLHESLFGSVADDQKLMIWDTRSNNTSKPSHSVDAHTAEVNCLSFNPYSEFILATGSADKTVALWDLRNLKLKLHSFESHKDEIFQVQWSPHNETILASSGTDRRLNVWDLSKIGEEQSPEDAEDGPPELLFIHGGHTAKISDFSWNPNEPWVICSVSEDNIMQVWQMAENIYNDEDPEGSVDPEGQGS

Binder	Kd [µM]	stoichiometry N
MRSKGRARKLAT [human PRDM3 peptide (residues 1–12)]	2.96	1
MRSKARARKLAK [human PRDM16 peptide (residues 1–12)]	3.15	1
